The target in experiment [1] is human neonatal Fc-receptor (FcRn) (human) (UniProt P55899). Put plainly: FcRn affinity column chromatography.
Experiment [2] has the same target. Briefly: FcRn affinity chromatography of the knobs-into-holes anti-VEGF/ANG2 antibody.

Sequence of human neonatal Fc-receptor (FcRn) (human) (P55899 24-297 limits assumed, chain 1 of 2): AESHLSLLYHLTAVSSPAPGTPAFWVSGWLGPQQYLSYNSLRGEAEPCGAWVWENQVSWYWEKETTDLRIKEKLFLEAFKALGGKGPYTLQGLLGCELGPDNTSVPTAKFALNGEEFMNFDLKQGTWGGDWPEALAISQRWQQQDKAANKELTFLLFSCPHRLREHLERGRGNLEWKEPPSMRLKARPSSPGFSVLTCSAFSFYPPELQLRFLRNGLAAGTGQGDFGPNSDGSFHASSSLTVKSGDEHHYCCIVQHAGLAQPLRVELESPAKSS
Sequence of human neonatal Fc-receptor (FcRn) (human) (P61769 21-119 limits assumed, chain 2 of 2, further chain): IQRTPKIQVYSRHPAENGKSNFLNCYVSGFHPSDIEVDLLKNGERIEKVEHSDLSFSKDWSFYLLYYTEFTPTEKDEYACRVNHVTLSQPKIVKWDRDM

On to “symmetrically modified anti-HER2 antibody, mutation T256H”, for which, in experiment [1], the retention time is 46 min.
As for “symmetrically modified anti-HER2 antibody, mutation E258H”, in experiment [1], the retention time was 45.6 min.
Same read-out and setting: then “symmetrically modified anti-HER2 antibody, mutation K317H”, with 46.3 min.
For the substance “bispecific anti-VEGF/ANG2 antibody (knobs-into-holes), first chain with I253A/H310A/H435A and second chain with I253A/H310A/H435A (bispecific antibody)”, in experiment [2], the RT [min] (retention time on the FcRn affinity column) stood at 0 min.
Consider “symmetrically modified anti-HER2 antibody, mutation K290H”, for which, in experiment [1], the retention time came out at 46.2 min.
As for “bispecific anti-VEGF/ANG2 antibody (knobs-into-holes), first chain with I253A/H310A/H435A and second chain with H310A (bispecific antibody)”, the RT [min] (retention time on the FcRn affinity column) in experiment [2] was 0 min.
Substance “symmetrically modified anti-HER2 antibody, mutation L309H” yielded a retention time in experiment [1] of 45.5 min.
“symmetrically modified anti-HER2 antibody, mutation E430H”: in experiment [1], the retention time stood at 46.4 min.
Substance “symmetrically engineered IgG1 Fc-region, L234A/L235A/P329G with Y436A (antibody)” came in with a FcRn-affinity column retention time in experiment [1] of 41.3 min.
In turn, “bispecific anti-VEGF/ANG2 antibody (knobs-into-holes), first chain with I253A/H310A/H435A and second chain with H435A (bispecific antibody)” had an RT [min] (retention time on the FcRn affinity column) in experiment [2] of 0 min.
On to “symmetrically modified anti-HER2 antibody, mutation R255D”, for which the retention time in experiment [1] stood at 41.4 min.
Same read-out and setting: next, “symmetrically modified anti-HER2 antibody, mutation K288E”: 45.2 min.
As to “bispecific anti-VEGF/ANG2 antibody (knobs-into-holes), no FcRn affecting mutation (bispecific antibody)”, the RT [min] (retention time on the FcRn affinity column) in experiment [2] stood at 52.8 min.
For the substance “symmetrically modified anti-HER2 antibody, mutation N434H”, the retention time in experiment [1] is 52 min.
The same measure, in the same setting: next, “symmetrically modified anti-HER2 antibody, mutation Q311H”: 46.3 min; “symmetrically modified anti-HER2 antibody, mutation D98E”: 46.2 min.

Values taken from patent publication US20160194389A1.
